Results reported in patent US20110158954A1, “METHOD FOR PRODUCING GAMMA DELTA T CELL POPULATION” (priority 2007, published 2011).

Test system: γδ T cells
Test: Expansion of γδ T cell population cultured using pamidronate (Example 2)
Type: cell-based
Settings: human PBMCs; IMDM; stimulant pamidronate 5 μM; IL-2 100 U/mL; immobilized FN fragment; day 14
Method: PBMCs prepared in Example 1-(1) were suspended in IMDM containing 0.25% (w/v) HSA, so as to have a concentration of 2×10^6 cells/mL, to prepare a cell suspension. Thereafter, the above-mentioned cell suspension was added to a plate to which nothing was immobilized or a plate immobilized with H296-H296, prepared in Example 1-(2), in a volume of 1 mL/well each. Pamidronate was added to each well so as to have a final concentration of 5 μM. These plates were incubated at 37° C. in 5% CO2 (zeroth day of culture). On the second day from the initiation of culture, IL-2 was added to each well so as to have a final concentration of 100 U/mL. […]
The ratio of γδ T cells was analyzed according to flow cytometry for PBMCs prepared in Example 1-(1) and the cells on the fourteenth day from the initiation of culture prepared in Example 2-(1), in the same manner as in Example 1-(4). […]
The number of live cells was counted according to trypan blue staining method for the cells on the fourteenth day from the initiation of culture prepared in Example 2-(1). The expansion fold of γδ T cells was calculated in comparison of the counted number with the number of γδ T cells at the initiation of culture, in the same manner as in Example 1-(5).

B1: H296-H296: modified fibronectin fragment in which two H-296's are connected to each other (SEQ ID NO: 22) (protein)
chain: AIPAPTDLKFTQVTPTSLSAQWTPPNVQLTGYRVRVTPKEKTGPMKEINLAPDSSSVVVSGLMVATKYEVSVYALKDTLTSRPAQGVVTTLENVSPPRRARVTDATETTITISWRTKTETITGFQVDAVPANGQTPIQRTIKPDVRSYTITGLQPGTDYKIYLYTLNDNARSSPVVIDASTAIDAPSNLRFLATTPNSLLVSWQPPRARITGYIIKYEKPGSPPREVVPRPRPGVTEATITGLEPGTEYTIYVIALKNNQKSEPLIGRKKTDELPQLVTLPHPNLHGPEILDVPSTAMAIPAPTDLKFTQVTPTSLSAQWTPPNVQLTGYRVRVTPKEKTGPMKEINLAPDSSSVVVSGLMVATKYEVSVYALKDTLTSRPAQGVVTTLENVSPPRRARVTDATETTITISWRTKTETITGFQVDAVPANGQTPIQRTIKPDVRSYTITGLQPGTDYKIYLYTLNDNARSSPVVIDASTAIDAPSNLRFLATTPNSLLVSWQPPRARITGYIIKYEKPGSPPREVVPRPRPGVTEATITGLEPGTEYTIYVIALKNNQKSEPLIGRKKTDELPQLVTLPHPNLHGPEILDVPST
modifications: Fibronectin fragment named H296-H296
In the case of B1, the “Expansion Fold of γδ T Cells (Folds) Fourteenth Day of Culture” value is reported as “×101.8 Folds”.
